Data set [1] addresses T1, TRAITS (TID-1/U19) (Rattus norvegicus, UniProt Q811X5 SEQ:1-262). The experiment in a line: EMSA; complex competed by 5x, 25x, 125x cold T-wt; poly[dI-dC] present. The conditions noted are these: tags: GST fusion (pGEX-2T, E. coli); label: 32P 5' end. The text has this:
(§1) The binding of GST-TRAITS fusion protein to labeled T-box containing DNA forms a DNA-protein complex (C), which can be competed in the presence of indicated fold (5×, 25×, or 125×) molar excess of cold T-wt but not by cold T-mut (ACTgTA). A non-specific complex (*) in the presence of GST-TRAITS was also formed in the presence of GST only. Labeled free DNA (F) was also indicated. […] NIH3T3 cells were transiently transfected with empty vector (PM) or vectors expressing the full-length rat TRAITS (residues 1-262 of SEQ ID NO: 14), its N-terminal (residues 1-113 of SEQ ID NO: 14), or its C-terminal (residues 114-262 of SEQ ID NO: 14) plus pG5CAT reporter and pSV-β-gal for normalization. Assays were performed after 24 hours of transfection. The fold activation of CAT reporter is shown with S.E.M. Assays were performed in triplicate in two separate experiments.
(§2) T-wt: (5′-[…] GAAGCTTACGTCGCG-3′ SEQ ID NO: 33) and T-mut: (5′-[…] CGAAGCTTACGTCGCG-3′ SEQ ID NO: 34) were synthesized and amplified by PCR. T4 polynucleotide kinase (Promega) was used to label T-wt & T-mut by [γ-³²P] ATP (NEN). Recombinant GST-TRAITS fusion protein was incubated with […] poly [dI-dC] and EMSA was performed according to the protocol provided by Gel Shift Assay System (Promega).
Background: Mobility shift assays separate free from complexed probe on a gel.

In data set [2] the target is T1, TRAITS (TID-1/U19). The experiment in a line: competition; cold T-mut up to 125x molar excess does not compete for labeled T-wt complex; legend prints ACTgTA but sequence has ACGTTA. The note with it: tags: GST fusion (pGEX-2T, E. coli).
Source text: as §1, §2

Where a chain is given by its changes, count along the chain named.

T1 sequence (Q811X5 whole entry, the tested form may be a part): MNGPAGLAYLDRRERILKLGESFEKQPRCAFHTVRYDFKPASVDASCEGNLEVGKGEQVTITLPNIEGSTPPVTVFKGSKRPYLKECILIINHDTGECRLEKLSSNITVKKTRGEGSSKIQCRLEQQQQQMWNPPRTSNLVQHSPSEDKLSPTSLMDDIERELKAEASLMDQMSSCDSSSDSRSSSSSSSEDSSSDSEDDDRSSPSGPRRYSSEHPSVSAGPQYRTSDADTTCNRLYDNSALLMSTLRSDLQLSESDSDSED

B1: T-wt (T-box ACTTTA) (dsDNA)
DNA 1: GTCTGTCTGGATCCGAGGTGAGTACTGACTTTACACACGTCTTCCGAAGCTTACGTCGCG
DNA 2: CGCGACGTAAGCTTCGGAAGACGTGTGTAAAGTCAGTACTCACCTCGGATCCAGACAGAC
In the case of B1, in the data set with TRAITS (TID-1/U19) [1], the binding result is given as “binds”.

B2: T-mut (dsDNA)
DNA 1: B1 DNA 1 with T30G
DNA 2: B1 DNA 2 with A31C
For the molecule B2, the binding result with TRAITS (TID-1/U19) [2] was “no binding”.

Values taken from patent US20030039970, “Method for prognosing cancer and the proteins involved” (published 2003).
